Broadly, the Kd is the free concentration of one partner at which half of the binding sites on the other are occupied at equilibrium, for simple one-to-one binding. A high value points to weaker binding.

In patent US20240083945A1 (Bicycle, published 2024) one finds Kd data, which are given here for 66 molecules.

The chains are these.
B1: BCY18970 (peptide)
peptide: ACTTDFCNNRYVVNRCEALE
modifications: Ci, Cii and Ciii cysteines covalently bound to TBMT scaffold
B2: BCY18984 (peptide)
peptide: MPTSCVTDFCNNRYVVNRCA
modifications: Ci, Cii and Ciii cysteines covalently bound to TBMT scaffold
B3: BCY19455 (peptide)
peptide: ACQVDVCALTGIQIPCA
modifications: Ci, Cii and Ciii cysteines covalently bound to TATA scaffold
B4: BCY16575 (peptide)
peptide: ACDKWQLGCRITYKCA
modifications: Ci, Cii and Ciii cysteines covalently bound to TATA scaffold
B5: BCY18989 (peptide)
peptide: LARDCGTDFCNNRYVVNRCA
modifications: Ci, Cii and Ciii cysteines covalently bound to TBMT scaffold
B6: BCY18978 (peptide)
peptide: RRAVCTTDFCNNRYVVNRCDDYH
modifications: Ci, Cii and Ciii cysteines covalently bound to TBMT scaffold
B7: BCY17625 (peptide)
peptide: ACNGDFCNNRYIVNTCA
modifications: Ci, Cii and Ciii cysteines covalently bound to TBMT scaffold
B8: BCY16582 (peptide)
peptide: ACPVRIEYPICDTSICA
modifications: Ci, Cii and Ciii cysteines covalently bound to TBMT scaffold
B9: BCY18988 (peptide)
peptide: KTEYCETDFCNNRYVVNRCA
modifications: Ci, Cii and Ciii cysteines covalently bound to TBMT scaffold
B10: BCY16566 (peptide)
peptide: ACTSYFCNNRFTLNTCA
modifications: Ci, Cii and Ciii cysteines covalently bound to TBMT scaffold
B11: BCY19454 (peptide)
peptide: ACTVDVCLLTGLHIPCA
modifications: Ci, Cii and Ciii cysteines covalently bound to TATA scaffold
B12: BCY19565 (peptide)
peptide: ACTVDVCELTGLHIPCA
modifications: Ci, Cii and Ciii cysteines covalently bound to TATA scaffold
B13: BCY17628 (peptide)
peptide: ACTTDFCNNRYVVNRCA
modifications: Ci, Cii and Ciii cysteines covalently bound to TBMT scaffold
B14: BCY20264 (peptide)
peptide: ACWTDFCNNRYVVNRCA
modifications: N-terminal acetyl (Ac); Ci, Cii and Ciii cysteines covalently bound to TBMT scaffold
B15: BCY18971 (peptide)
peptide: ACTTDFCNNRYVVNRCGSDN
modifications: Ci, Cii and Ciii cysteines covalently bound to TBMT scaffold
B16: BCY17627 (peptide)
peptide: ACEGDFCDGRYIVNTCA
modifications: Ci, Cii and Ciii cysteines covalently bound to TBMT scaffold
B17: BCY20263 (peptide)
peptide: ACTTDFCNNRYVVNRCA
modifications: N-terminal acetyl (Ac); Ci, Cii and Ciii cysteines covalently bound to TBMT scaffold
B18: BCY18976 (peptide)
peptide: RRAVCTTDFCNNRYVVNRCA
modifications: Ci, Cii and Ciii cysteines covalently bound to TBMT scaffold
B19: BCY18979 (peptide)
peptide: QYESCTTDFCNNRYVVNRCGSDN
modifications: Ci, Cii and Ciii cysteines covalently bound to TBMT scaffold
B20: BCY16574 (peptide)
peptide: ACNTWCMDNDRIYFNCA
modifications: Ci, Cii and Ciii cysteines covalently bound to TBMT scaffold
B21: BCY18987 (peptide)
peptide: HSLICVTDFCNNRYVVNRCMHSQ
modifications: Ci, Cii and Ciii cysteines covalently bound to TBMT scaffold
B22: BCY18986 (peptide)
peptide: HSLICVTDFCNNRYVVNRCA
modifications: Ci, Cii and Ciii cysteines covalently bound to TBMT scaffold
B23: BCY18983 (peptide)
peptide: ACTTDFCNNRYVVNQCQEQS
modifications: Ci, Cii and Ciii cysteines covalently bound to TBMT scaffold
B24: BCY20265 (peptide)
peptide: ACSTDVCKLTGIAIPCA
modifications: N-terminal acetyl (Ac); Ci, Cii and Ciii cysteines covalently bound to TATA scaffold
B25: BCY17624 (peptide)
peptide: ACWTDFCNNRYIVNTCA
modifications: Ci, Cii and Ciii cysteines covalently bound to TBMT scaffold
B26: BCY17631 (peptide)
peptide: ACTTDFCNDRYIINPCA
modifications: Ci, Cii and Ciii cysteines covalently bound to TBMT scaffold
B27: BCY18994 (peptide)
peptide: NQLPCLTDFCNNRYVVNQCQEQS
modifications: Ci, Cii and Ciii cysteines covalently bound to TBMT scaffold
B28: BCY16581 (peptide)
peptide: ACHTPDWSDFCAGRYCA
modifications: Ci, Cii and Ciii cysteines covalently bound to TBCU scaffold
B29: BCY17640 (peptide)
peptide: ACKRGYCPVTDTFCA
modifications: Ci, Cii and Ciii cysteines covalently bound to TBMT scaffold
B30: BCY17632 (peptide)
peptide: ACTTDFCNDRYITELCA
modifications: Ci, Cii and Ciii cysteines covalently bound to TBMT scaffold
B31: BCY16571 (peptide)
peptide: ACIVGYCPATDDFCA
modifications: Ci, Cii and Ciii cysteines covalently bound to TBMT scaffold
B32: BCY16569 (peptide)
peptide: ACNAWFCDGRFYMCA
modifications: Ci, Cii and Ciii cysteines covalently bound to TBCU scaffold
B33: BCY17639 (peptide)
peptide: ACTKGYCPLTDMFCA
modifications: Ci, Cii and Ciii cysteines covalently bound to TBMT scaffold
B34: BCY18982 (peptide)
peptide: ACTTDFCNNRYVVNLCQNKS
modifications: Ci, Cii and Ciii cysteines covalently bound to TBMT scaffold
B35: BCY18992 (peptide)
peptide: NQLPCLTDFCNNRYVVNRCA
modifications: Ci, Cii and Ciii cysteines covalently bound to TBMT scaffold
B36: BCY18973 (peptide)
peptide: ACTTDFCNNRYVVNQCSYPR
modifications: Ci, Cii and Ciii cysteines covalently bound to TBMT scaffold
B37: BCY16570 (peptide)
peptide: ACTTDFCNSRYIVNTCA
modifications: Ci, Cii and Ciii cysteines covalently bound to TBMT scaffold
B38: BCY17641 (peptide)
peptide: ACSIGYCPVTDTFCA
modifications: Ci, Cii and Ciii cysteines covalently bound to TBMT scaffold
B39: BCY18991 (peptide)
peptide: LSQPCLTDFCNNRYVVNRCA
modifications: Ci, Cii and Ciii cysteines covalently bound to TBMT scaffold
B40: BCY16565 (peptide)
peptide: ACSEGWCFRENRYQVCA
modifications: Ci, Cii and Ciii cysteines covalently bound to TATA scaffold
B41: BCY18975 (peptide)
peptide: QYESCTTDFCNNRYVVNRCA
modifications: Ci, Cii and Ciii cysteines covalently bound to TBMT scaffold
B42: BCY18977 (peptide)
peptide: EKQYCTTDFCNNRYVVNRCA
modifications: Ci, Cii and Ciii cysteines covalently bound to TBMT scaffold
B43: BCY18972 (peptide)
peptide: ACTTDFCNNRYVVNRCDDYH
modifications: Ci, Cii and Ciii cysteines covalently bound to TBMT scaffold
B44: BCY20266 (peptide)
peptide: ACMQNPCRWVNIPCA
modifications: N-terminal acetyl (Ac); Ci, Cii and Ciii cysteines covalently bound to TATA scaffold
B45: BCY19563 (peptide)
peptide: ACMHDVCVLTGVNIPCA
modifications: Ci, Cii and Ciii cysteines covalently bound to TATA scaffold
B46: BCY18171 (peptide)
peptide: ACLVDVCEITGVQIRCA
modifications: Ci, Cii and Ciii cysteines covalently bound to TATA scaffold
B47: BCY16567 (peptide)
peptide: ACPQTYCFINNRYCA
modifications: Ci, Cii and Ciii cysteines covalently bound to TBMT scaffold
B48: BCY17629 (peptide)
peptide: ACTTDFCNNRYVTQRCA
modifications: Ci, Cii and Ciii cysteines covalently bound to TBMT scaffold
B49: BCY17634 (peptide)
peptide: ACWTDFCNNRYVTQRCA
modifications: Ci, Cii and Ciii cysteines covalently bound to TBMT scaffold
B50: BCY16564 (peptide)
peptide: ACQYTFCENRYKICA
modifications: Ci, Cii and Ciii cysteines covalently bound to TATA scaffold
B51: BCY17638 (peptide)
peptide: ACYVGYCPATDTFCA
modifications: Ci, Cii and Ciii cysteines covalently bound to TBMT scaffold
B52: BCY18985 (peptide)
peptide: LEQICVTDFCNNRYVVNRCA
modifications: Ci, Cii and Ciii cysteines covalently bound to TBMT scaffold
B53: BCY17637 (peptide)
peptide: ACSRGYCPRTNTFCA
modifications: Ci, Cii and Ciii cysteines covalently bound to TBMT scaffold
B54: BCY19453 (peptide)
peptide: ACVHDVCALTGIHIPCA
modifications: Ci, Cii and Ciii cysteines covalently bound to TATA scaffold
B55: BCY18974 (peptide)
peptide: AYTDCTTDFCNNRYVVNRCA
modifications: Ci, Cii and Ciii cysteines covalently bound to TBMT scaffold
B56: BCY17635 (peptide)
peptide: ACDGNFCDNRYVTQRCA
modifications: Ci, Cii and Ciii cysteines covalently bound to TBMT scaffold
B57: BCY19564 (peptide)
peptide: ACTHDVCVLTGISIPCA
modifications: Ci, Cii and Ciii cysteines covalently bound to TATA scaffold
B58: BCY16576 (peptide)
peptide: ACLPLGARCQWGRTCA
modifications: Ci, Cii and Ciii cysteines covalently bound to TATA scaffold
B59: BCY17636 (peptide)
peptide: ACDGNFCDNRYVVNRCA
modifications: Ci, Cii and Ciii cysteines covalently bound to TBMT scaffold
B60: BCY17630 (peptide)
peptide: ACTTDFCNDRYIVNSCA
modifications: Ci, Cii and Ciii cysteines covalently bound to TBMT scaffold
B61: BCY18169 (peptide)
peptide: ACSTDVCKLTGIAIPCA
modifications: Ci, Cii and Ciii cysteines covalently bound to TATA scaffold
B62: BCY17626 (peptide)
peptide: ACDGNFCDNRYIVNTCA
modifications: Ci, Cii and Ciii cysteines covalently bound to TBMT scaffold
B63: BCY16572 (peptide)
peptide: ACSVGYCPLTNTFCA
modifications: Ci, Cii and Ciii cysteines covalently bound to TBMT scaffold
B64: BCY16573 (peptide)
peptide: ACFRGYCPQTNLFCA
modifications: Ci, Cii and Ciii cysteines covalently bound to TBMT scaffold
B65: BCY18993 (peptide)
peptide: KSQRCMTDFCNNRYVVNRCA
modifications: Ci, Cii and Ciii cysteines covalently bound to TBMT scaffold
B66: BCY16563 (peptide)
peptide: ACKTYCFMENRYSLSCA
modifications: Ci, Cii and Ciii cysteines covalently bound to TBMT scaffold

This assay deals with T1, COVID-19 nucleocapsid protein (N-protein) (severe acute respiratory syndrome …, UniProt P0DTC9 1-419).
T1 construct: also called nucleocapsid protein (N-protein) of severe acute respiratory syndrome coronavirus 2 (SARS-CoV-2)
As to the kind of experiment: bio-layer interferometry (BLI). For orientation: Biolayer interferometry detects binding as a change in optical thickness at a sensor tip.
The molecule B1 gave a dissociation constant (Kd) of 29.3 nM.
B2 yielded a dissociation constant (Kd) of 72.8 nM.
Take B3: the equilibrium dissociation constant (Kd) turned out to be 14900 nM. Against the preceding molecule, the Kd is about 200-fold higher.
With B4, binding was characterised by a dissociation constant (Kd) of 1020 nM.
As for B5, the figure is 26.5 nM; as for B6, 40.2 nM.
For B7, binding was characterised by a dissociation constant (Kd) of 27.6 nM.
As for B8, the Kd turned out to be 1790 nM.
As for B9, the figure is 29.1 nM; as for B10, 1110 nM; as for B11, 7110 nM.
B12 came in with a Kd of 840 nM.
Under B13 stands 16.6 nM.
Under B14 stands 10.1 nM; under B15, 27.9 nM.
As for B16, the figure is 36.9 nM.
In turn, B17 came in with a Kd of 11.8 nM.
Consider B18, for which the dissociation constant (Kd) was determined as 19.7 nM.
Under B19 stands 108 nM; under B20, 1030 nM; under B21, 9.7 nM.
Regarding B22, the Kd turned out to be 10.6 nM.
The molecule B23 displayed a Kd of 2450 nM.
Molecule B24 displayed a dissociation constant (Kd) of 2.5 nM. This Kd lies about 980-fold lower than the previous one.
B25 returned a dissociation constant Kd of 56.3 nM. Compared with the last molecule, the Kd is about 23-fold higher.
B26: the Kd amounted to 321 nM.
On to B27, for which the dissociation constant Kd turned out to be 6890 nM.
As for B28, the equilibrium dissociation constant (Kd) amounted to 8040 nM.
Consider B29, for which the equilibrium dissociation constant (Kd) was found to be 43000 nM.
For B30, the equilibrium dissociation constant (Kd) was found to be 2600 nM.
Under B31 stands 797 nM.
B32: the dissociation constant Kd was 4270 nM.
With B33, binding was characterised by a dissociation constant (Kd) of 1240 nM.
As to B34, binding was put at a Kd of 79.7 nM.
With B35, the affinity, expressed as Kd, was 19.7 nM. Compared with the last molecule, the Kd is about 4-fold lower.
B36 yielded a dissociation constant Kd of 225 nM. This Kd is about 11-fold higher than that of the molecule before.
As for B37, the figure is 442 nM; as for B38, 1740 nM; as for B39, 10.6 nM.
B40: binding was characterised by a dissociation constant (Kd) of 1340 nM.
Under B41 stands 63.8 nM; under B42, 22.3 nM.
B43 showed a dissociation constant (Kd) of 22.2 nM.
Take B44: the dissociation constant Kd was 9.7 nM.
The molecule B45 yielded a Kd of 1510 nM.
B46 yielded a Kd of 5610 nM.
Take B47: the dissociation constant (Kd) came to 1010 nM.
Molecule B48 registered a dissociation constant (Kd) of 41.7 nM.
As for B49, the figure is 64.2 nM.
On to B50, for which binding was put at a Kd of 2080 nM. This Kd is about 32-fold higher than that of the molecule before.
B51 yielded an equilibrium dissociation constant (Kd) of 805 nM.
Regarding B52, the Kd came out at 28.1 nM.
Take B53: the dissociation constant (Kd) came to 1050 nM. This Kd is about 37-fold higher than that of the molecule before.
On to B54, for which the affinity, expressed as Kd, was 4240 nM.
B55 had a Kd of 20.6 nM.
B56 displayed a Kd of 40300 nM.
Consider B57, for which binding was put at a Kd of 2000 nM.
As for B58, the figure is 593 nM; as for B59, 1730 nM.
B60 registered an equilibrium dissociation constant (Kd) of 331 nM.
Under B61 stands 1600 nM; under B62, 263 nM; under B63, 1660 nM.
Under B64 stands 728 nM; under B65, 23.8 nM; under B66, 1540 nM.
